The record followed here is IntAct's records for PubMed 31515488.

First the molecules themselves.
B1: Cytohesin-4 (Homo sapiens), Q9UIA0 (parent)
chain: MDLCHPEPAELSSGETEELQRIKWHRKQLLEDIQKLKDEIADVFAQIDCFESAEESRMAQKEKELCIGRKKFNMDPAKGIQYFIEHKLLTPDVQDIARFLYKGEGLNKTAIGTYLGERDPINLQVLQAFVDCHEFANLNLVQALRQFLWSFRLPGEAQKIDRMMEAFATRYCLCNPGVFQSTDTCYVLSFSIIMLNTSLHNPNVRDRPPFERFVSMNRGINNGSDLPEDQLRNLFDSIKSEPFSIPEDDGNDLTHTFFNPDREGWLLKLGGRVKTWKRRWFILTDNCLYYFEFTTDKEPRGIIPLENLSVQKVDDPKKPFCLELYNPSCRGQKIKACKTDGDGRVVEGKHESYRISATSAEERDQWIESIRASITRVPFYDLVSTRKKKIASKQ
B2: Syntenin-2 (Homo sapiens), Q9H190 (parent)
chain: MSSLYPSLEDLKVDQAIQAQVRASPKMPALPVQATAISPPPVLYPNLAELENYMGLSLSSQEVQESLLQIPEGDSTAVSGPGPGQMVAPVTGYSLGVRRAEIKPGVREIHLCKDERGKTGLRLRKVDQGLFVQLVQANTPASLVGLRFGDQLLQIDGRDCAGWSSHKAHQVVKKASGDKIVVVVRDRPFQRTVTMHKDSMGHVGFVIKKGKIVSLVKGSSAARNGLLTNHYVCEVDGQNVIGLKDKKIMEILATAGNVVTLTIIPSVIYEHMVKKLPPVLLHHTMDHSIPDA
partner: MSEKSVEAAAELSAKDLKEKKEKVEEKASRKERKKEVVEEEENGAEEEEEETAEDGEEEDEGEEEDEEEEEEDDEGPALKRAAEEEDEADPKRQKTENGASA
B3: KAT8 regulatory NSL complex subunit 1 (Homo sapiens), Q7Z3B3 (parent)
chain: MAAMAPALTDAAAEAHHIRFKLAPPSSTLSPGSAENNGNANILIAANGTKRKAIAAEDPSLDFRNNPTKEDLGKLQPLVASYLCSDVTSVPSKESLKLQGVFSKQTVLKSHPLLSQSYELRAELLGRQPVLEFSLENLRTMNTSGQTALPQAPVNGLAKKLTKSSTHSDHDNSTSLNGGKRALTSSALHGGEMGGSESGDLKGGMTNCTLPHRSLDVEHTTLYSNNSTANKSSVNSMEQPALQGSSRLSPGTDSSSNLGGVKLEGKKSPLSSILFSALDSDTRITALLRRQADIESRARRLQKRLQVVQAKQVERHIQHQLGGFLEKTLSKLPNLESLRPRSQLMLTRKAEAALRKAASETTTSEGLSNFLKSNSISEELERFTASGIANLRCSEQAFDSDVTDSSSGGESDIEEEELTRADPEQRHVPLRRRSEWKWAADRAAIVSRWNWLQAHVSDLEYRIRQQTDIYKQIRANKGLIVLGEVPPPEHTTDLFLPLSSEVKTDHGTDKLIESVSQPLENHGAPIIGHISESLSTKSCGALRPVNGVINTLQPVLADHIPGDSSDAEEQLHKKQRLNLVSSSSDGTCVAARTRPVLSCKKRRLVRPNSIVPLSKKVHRNSTIRPGCDVNPSCALCGSGSINTMPPEIHYEAPLLERLSQLDSCVHPVLAFPDDVPTSLHFQSMLKSQWQNKPFDKIKPPKKLSLKHRAPMPGSLPDSARKDRHKLVSSFLTTAKLSHHQTRPDRTHRQHLDDVGAVPMVERVTAPKAERLLNPPPPVHDPNHSKMRLRDHSSERSEVLKHHTDMSSSSYLAATHHPPHSPLVRQLSTSSDSPAPASSSSQVTASTSQQPVRRRRGESSFDINNIVIPMSVAATTRVEKLQYKEILTPSWREVDLQSLKGSPDEENEEIEDLSDAAFAALHAKCEEMERARWLWTTSVPPQRRGSRSYRSSDGRTTPQLGSANPSTPQPASPDVSSSHSLSEYSHGQSPRSPISPELHSAPLTPVARDTPRHLASEDTRCSTPELGLDEQSVQPWERRTFPLAHSPQAECEDQLDAQERAARCTRRTSGSKTGRETEAAPTSPPIVPLKSRHLVAAATAQRPTHR
B4: Tuftelin-interacting protein 11 (Homo sapiens), Q9UBB9 (parent)
chain: MSLSHLYRDGEGRIDDDDDERENFEITDWDLQNEFNPNRQRHWQTKEEATYGVWAERDSDDERPSFGGKRARDYSAPVNFISAGLKKGAAEEAELEDSDDEEKPVKQDDFPKDFGPRKLKTGGNFKPSQKGFAGGTKSFMDFGSWERHTKGIGQKLLQKMGYVPGRGLGKNAQGIINPIEAKQRKGKGAVGAYGSERTTQSMQDFPVVDSEEEAEEEFQKELSQWRKDPSGSKKKPKYSYKTVEELKAKGRISKKLTAPQKELSQVKVIDMTGREQKVYYSYSQISHKHNVPDDGLPLQSQQLPQSGKEAKAPGFALPELEHNLQLLIDLTEQEIIQNDRQLQYERDMVVNLFHELEKMTEVLDHEERVISNLSKVLEMVEECERRMQPDCSNPLTLDECARIFETLQDKYYEEYRMSDRVDLAVAIVYPLMKEYFKEWDPLKDCTYGTEIISKWKSLLENDQLLSHGGQDLSADAFHRLIWEVWMPFVRNIVTQWQPRNCDPMVDFLDSWVHIIPVWILDNILDQLIFPKLQKEVENWNPLTDTVPIHSWIHPWLPLMQARLEPLYSPIRSKLSSALQKWHPSDSSAKLILQPWKDVFTPGSWEAFMVKNIVPKLGMCLGELVINPHQQHMDAFYWVIDWEGMISVSSLVGLLEKHFFPKWLQVLCSWLSNSPNYEEITKWYLGWKSMFSDQVLAHPSVKDKFNEALDIMNRAVSSNVGAYMQPGARENIAYLTHTERRKDFQYEAMQERREAENMAQRGIGVAASSVPMNFKDLIETKAEEHNIVFMPVIGKRHEGKQLYTFGRIVIYIDRGVVFVQGEKTWVPTSLQSLIDMAK
partner: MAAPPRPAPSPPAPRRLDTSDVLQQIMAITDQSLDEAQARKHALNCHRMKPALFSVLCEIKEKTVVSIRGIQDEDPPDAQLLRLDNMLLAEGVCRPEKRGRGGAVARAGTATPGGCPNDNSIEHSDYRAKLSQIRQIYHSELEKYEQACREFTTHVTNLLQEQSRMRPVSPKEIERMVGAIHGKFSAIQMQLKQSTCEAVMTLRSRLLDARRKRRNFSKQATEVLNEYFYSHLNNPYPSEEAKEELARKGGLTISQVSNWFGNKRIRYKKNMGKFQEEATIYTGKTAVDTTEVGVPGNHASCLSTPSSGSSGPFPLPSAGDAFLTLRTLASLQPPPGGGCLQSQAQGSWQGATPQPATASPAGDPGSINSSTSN
B5: F-box only protein 3 (Homo sapiens), Q9UK99 (parent)
chain: MAAMETETAPLTLESLPTDPLLLILSFLDYRDLINCCYVSRRLSQLSSHDPLWRRHCKKYWLISEEEKTQKNQCWKSLFIDTYSDVGRYIDHYAAIKKAWDDLKKYLEPRCPRMVLSLKEGAREEDLDAVEAQIGCKLPDDYRCSYRIHNGQKLVVPGLLGSMALSNHYRSEDLLDVDTAAGGFQQRQGLKYCLPLTFCIHTGLSQYIAVEAAEGRNKNEVFYQCPDQMARNPAAIDMFIIGATFTDWFTSYVKNVVSGGFPIIRDQIFRYVHDPECVATTGDITVSVSTSFLPELSSVHPPHYFFTYRIRIEMSKDALPEKACQLDSRYWRITNAKGDVEEVQGPGVVGEFPIISPGRVYEYTSCTTFSTTSGYMEGYYTFHFLYFKDKIFNVAIPRFHMACPTFRVSIARLEMGPDEYEEMEEEEEEEEEEDEDDDSADMDESDEDDEEERRRRVFDVPIRRRRCSRLF
B6: Protein sprouty homolog 1 (Homo sapiens), O43609 (parent)
chain: MDPQNQHGSGSSLVVIQQPSLDSRQRLDYEREIQPTAILSLDQIKAIRGSNEYTEGPSVVKRPAPRTAPRQEKHERTHEIIPINVNNNYEHRHTSHLGHAVLPSNARGPILSRSTSTGSAASSGSNSSASSEQGLLGRSPPTRPVPGHRSERAIRTQPKQLIVDDLKGSLKEDLTQHKFICEQCGKCKCGECTAPRTLPSCLACNRQCLCSAESMVEYGTCMCLVKGIFYHCSNDDEGDSYSDNPCSCSQSHCCSRYLCMGAMSLFLPCLLCYPPAKGCLKLCRRCYDWIHRPGCRCKNSNTVYCKLESCPSRGQGKPS
B7: Late cornified envelope protein 1B (Homo sapiens), Q5T7P3 (parent)
chain: MSCQQNQQQCQPPPKCIPKCPPKCLTPRCPPKCPPKCPPVSSCCSVSSGGCCGSSSGGSCGSSSGGCCSSGGGGCCLSHHRRRRSHCHRPQSSGCCSQPSGGSSCCGGGSGQHSGGCC
partner: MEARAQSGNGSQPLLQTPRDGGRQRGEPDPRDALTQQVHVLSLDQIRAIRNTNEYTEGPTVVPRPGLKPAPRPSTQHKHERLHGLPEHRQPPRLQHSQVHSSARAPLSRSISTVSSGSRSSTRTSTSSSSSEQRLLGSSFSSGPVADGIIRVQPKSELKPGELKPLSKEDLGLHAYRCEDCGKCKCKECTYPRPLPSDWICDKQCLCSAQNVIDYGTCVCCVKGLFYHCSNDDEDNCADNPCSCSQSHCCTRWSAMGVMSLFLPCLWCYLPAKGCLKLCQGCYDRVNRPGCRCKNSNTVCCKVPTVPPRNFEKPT

The first assay covers variants of B1. To be noted: with fos_human FOS.
On to A9T, for which the “effect of a mutation on the interaction” value is “with no effect”. The same measure, in the same setting: in the case of M74V it was “with no effect”.

The variants in another assay derive from B2. Conditions: with ptms_human PTMS.
In the case of R223C, the “effect of a mutation on the interaction” value is recorded as “disrupting interaction strength”.

The variants in a further assay derive from B3. To be noted: with cdr2_human CDR2, Q01850.
Sequence of cdr2_human CDR2, Q01850 (Q01850 whole entry): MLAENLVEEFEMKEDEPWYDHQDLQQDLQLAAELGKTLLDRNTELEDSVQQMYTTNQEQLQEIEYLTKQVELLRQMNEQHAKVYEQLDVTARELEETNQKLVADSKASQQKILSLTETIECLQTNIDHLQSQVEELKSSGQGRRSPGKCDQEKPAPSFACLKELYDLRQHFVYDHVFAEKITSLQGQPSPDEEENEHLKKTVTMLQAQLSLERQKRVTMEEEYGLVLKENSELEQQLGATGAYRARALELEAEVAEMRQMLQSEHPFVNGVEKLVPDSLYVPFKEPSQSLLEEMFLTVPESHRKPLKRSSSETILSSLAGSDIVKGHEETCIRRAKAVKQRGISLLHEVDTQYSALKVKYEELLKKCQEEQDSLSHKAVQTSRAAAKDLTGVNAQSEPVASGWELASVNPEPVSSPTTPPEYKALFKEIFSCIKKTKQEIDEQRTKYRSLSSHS
With K104T, the “effect of a mutation on the interaction” value is “with no effect”. Still for that read-out and setting: the value for N225D was “with no effect”.

Variants of B3 are the subject of the next assay. Conditions: with traf2_human TRAF2, Q12933.
Sequence of traf2_human TRAF2, Q12933 (Q12933 whole entry): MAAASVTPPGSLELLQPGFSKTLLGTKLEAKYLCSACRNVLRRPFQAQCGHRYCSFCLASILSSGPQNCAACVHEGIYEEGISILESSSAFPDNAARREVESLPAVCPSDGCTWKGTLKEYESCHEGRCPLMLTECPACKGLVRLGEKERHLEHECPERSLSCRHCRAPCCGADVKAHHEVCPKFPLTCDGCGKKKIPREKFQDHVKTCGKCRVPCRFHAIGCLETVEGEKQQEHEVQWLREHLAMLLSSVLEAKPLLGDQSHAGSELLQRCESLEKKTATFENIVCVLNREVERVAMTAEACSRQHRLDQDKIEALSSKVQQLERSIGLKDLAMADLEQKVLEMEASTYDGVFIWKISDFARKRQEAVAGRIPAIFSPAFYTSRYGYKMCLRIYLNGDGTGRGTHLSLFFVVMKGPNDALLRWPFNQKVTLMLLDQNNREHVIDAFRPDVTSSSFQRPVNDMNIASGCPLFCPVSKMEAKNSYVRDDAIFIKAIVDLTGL
For K104T, the “effect of a mutation on the interaction” value was “with no effect”. The same measure, in the same setting: the value for N225D was “with no effect”.

Variants of B3 are the subject of a further assay. Conditions: with KRT15, P19012.
Sequence of KRT15, P19012 (P19012 whole entry): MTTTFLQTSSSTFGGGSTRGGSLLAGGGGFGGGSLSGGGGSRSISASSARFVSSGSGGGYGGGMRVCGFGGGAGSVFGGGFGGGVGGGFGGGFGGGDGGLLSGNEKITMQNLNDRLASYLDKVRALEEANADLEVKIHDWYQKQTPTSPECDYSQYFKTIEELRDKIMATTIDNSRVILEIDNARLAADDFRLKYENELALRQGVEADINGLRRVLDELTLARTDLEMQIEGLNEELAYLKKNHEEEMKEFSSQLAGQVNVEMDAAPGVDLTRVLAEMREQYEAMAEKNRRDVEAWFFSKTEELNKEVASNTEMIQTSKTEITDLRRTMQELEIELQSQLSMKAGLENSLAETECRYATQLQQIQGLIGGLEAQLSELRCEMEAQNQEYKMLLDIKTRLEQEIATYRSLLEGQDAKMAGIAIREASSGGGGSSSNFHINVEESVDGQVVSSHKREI
For K104T, the “effect of a mutation on the interaction” value is listed as “with no effect”. Same read-out and setting: the value for N225D was “with no effect”.

The variants in another assay derive from B4. Conditions: with pbx4_human PBX4, Q9BYU1.
With S688L, the “effect of a mutation on the interaction” value is given as “with no effect”.

As to R8Q, the “effect of a mutation on the interaction” value is recorded as “with no effect”.

Another assay covers variants of B5. Conditions: with skp1_human SKP1, P63208.
Sequence of skp1_human SKP1, P63208 (P63208 whole entry): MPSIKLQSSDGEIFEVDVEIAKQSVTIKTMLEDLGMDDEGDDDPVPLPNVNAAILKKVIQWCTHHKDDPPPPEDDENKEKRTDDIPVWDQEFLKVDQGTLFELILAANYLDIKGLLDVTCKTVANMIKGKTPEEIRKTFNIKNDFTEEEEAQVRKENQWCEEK
For P10S, the “effect of a mutation on the interaction” value is listed as “with no effect”.

In another assay the parent is B6. Conditions: with nt2na_human NOTCH2NLA.
Take A37T: the “effect of a mutation on the interaction” value was “with no effect”.

Turning to R24H, the “effect of a mutation on the interaction” value is “with no effect”.

The variants in the next assay derive from B6. Conditions: with otx1_human OTX1, P32242.
Sequence of otx1_human OTX1, P32242 (P32242 whole entry): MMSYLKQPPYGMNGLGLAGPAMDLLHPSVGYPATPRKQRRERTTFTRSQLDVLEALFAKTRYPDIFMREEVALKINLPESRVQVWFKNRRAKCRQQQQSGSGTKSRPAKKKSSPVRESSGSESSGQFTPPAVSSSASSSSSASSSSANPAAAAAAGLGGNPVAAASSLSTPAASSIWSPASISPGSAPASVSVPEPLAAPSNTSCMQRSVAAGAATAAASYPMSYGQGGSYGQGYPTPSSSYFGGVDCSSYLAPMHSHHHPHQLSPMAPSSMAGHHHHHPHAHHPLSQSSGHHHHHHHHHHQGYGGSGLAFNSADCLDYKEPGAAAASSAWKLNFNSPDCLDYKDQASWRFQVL
Regarding A37T, the “effect of a mutation on the interaction” value was “with no effect”. Same read-out and setting: in the case of R24H it was “with no effect”.

The variants in another assay derive from B6. To be noted: with meox2_human MEOX2, P50222.
Sequence of meox2_human MEOX2, P50222 (P50222 whole entry): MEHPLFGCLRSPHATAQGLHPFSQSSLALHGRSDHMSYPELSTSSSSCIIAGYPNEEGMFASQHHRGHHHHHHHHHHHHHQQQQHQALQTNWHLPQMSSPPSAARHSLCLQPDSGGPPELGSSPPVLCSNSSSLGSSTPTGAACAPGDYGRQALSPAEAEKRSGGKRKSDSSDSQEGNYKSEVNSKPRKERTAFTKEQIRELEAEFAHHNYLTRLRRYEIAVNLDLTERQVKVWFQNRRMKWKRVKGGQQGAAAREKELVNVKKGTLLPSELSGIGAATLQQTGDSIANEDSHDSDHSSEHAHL
As to A37T, the “effect of a mutation on the interaction” value is given as “with no effect”. The same measure, in the same setting: the value for R24H was “with no effect”.

The variants in a further assay derive from B6. To be noted: with kr101_human KRTAP10-1, P60331.
Sequence of kr101_human KRTAP10-1, P60331 (P60331 whole entry): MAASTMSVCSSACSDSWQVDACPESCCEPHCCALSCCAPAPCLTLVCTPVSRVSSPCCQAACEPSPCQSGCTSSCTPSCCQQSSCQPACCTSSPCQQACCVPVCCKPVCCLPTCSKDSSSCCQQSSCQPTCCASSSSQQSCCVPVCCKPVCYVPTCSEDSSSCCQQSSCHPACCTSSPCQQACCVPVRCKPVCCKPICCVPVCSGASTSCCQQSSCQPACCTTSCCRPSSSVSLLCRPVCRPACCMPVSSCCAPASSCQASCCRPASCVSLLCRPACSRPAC
A37T: the “effect of a mutation on the interaction” value was “with no effect”.

As to R24H, the “effect of a mutation on the interaction” value is recorded as “with no effect”.

In a further assay the parent is B7. To be noted: with spy2_human SPRY2, O43597.
With H113Q, the “effect of a mutation on the interaction” value is recorded as “with no effect”. Same read-out and setting: in the case of C51Y it was “with no effect”.
